Measurements taken from patent US20180320138.

What was measured:
[1] = test system: PKLR TALEN left subunit (synthetic construct (Xanthomonas TALE-FokI)?); assay: cell_activity; settings: PKD2iPSC, with right subunit; 31% in PKD3iPSC; cleavage also seen by Surveyor assay
[2] = test system: PKLR TALEN right subunit (synthetic construct (Xanthomonas TALE-FokI)?); assay: cell_activity; settings: PKD2iPSC, with left subunit; 31% in PKD3iPSC; cleavage also seen by Surveyor assay

Sequence | TALEN cleavage efficiency [1] | TALEN cleavage efficiency [2]
TGATCGAGCCACTGTACTCCAGCCTAGGTGACAGACGAGACCCTAGAGA (double strand) [PKLR intron 2 TALEN target, left half-site] | 40% | 
TGATCGAGCCACTGTACTCCAGCCTAGGTGACAGACGAGACCCTAGAGA (double strand) [PKLR intron 2 TALEN target, right half-site] |  | 40%
